# Measured values as given in patent US20150158910A1 (Bristol-Myers Squibb, published 2015).
# B1: Peptide SEQ ID NO: 10 (peptide)
# peptide: AYPG
# B2: PAR4 agonist peptide SEQ ID NO: 2 (peptide)
# peptide: AYPGWLVKNG
# modifications: free N-terminus; C-terminal amide
# B3: Peptide SEQ ID NO: 11 (peptide)
# peptide: AYPGQVCAND
# B4: SFFLRR (SEQ ID NO: 35) (peptide)
# peptide: SFFLRR
# How the values were obtained:
# [1] = molecular target: T1, human PAR4 (protease activated receptor 4) (human, UniProt Q96RI0 48-385); assay: cell-based or functional assay
# T1 sequence (looked up): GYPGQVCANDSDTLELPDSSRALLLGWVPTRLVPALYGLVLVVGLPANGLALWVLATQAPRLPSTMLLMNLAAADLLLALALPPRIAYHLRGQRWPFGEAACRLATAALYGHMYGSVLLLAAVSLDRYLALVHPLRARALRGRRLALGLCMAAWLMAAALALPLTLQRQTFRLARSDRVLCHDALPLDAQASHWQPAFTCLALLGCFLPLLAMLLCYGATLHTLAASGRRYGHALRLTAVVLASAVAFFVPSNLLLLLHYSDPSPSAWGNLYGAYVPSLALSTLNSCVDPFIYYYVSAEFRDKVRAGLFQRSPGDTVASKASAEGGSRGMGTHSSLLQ
# [2] = molecular target: T2, PAR1 (protease activated receptor 1), endogenous in HEK293 cells (UniProt P25116 42-425, limits assumed); assay: cell-based or functional assay
# T2 sequence (looked up): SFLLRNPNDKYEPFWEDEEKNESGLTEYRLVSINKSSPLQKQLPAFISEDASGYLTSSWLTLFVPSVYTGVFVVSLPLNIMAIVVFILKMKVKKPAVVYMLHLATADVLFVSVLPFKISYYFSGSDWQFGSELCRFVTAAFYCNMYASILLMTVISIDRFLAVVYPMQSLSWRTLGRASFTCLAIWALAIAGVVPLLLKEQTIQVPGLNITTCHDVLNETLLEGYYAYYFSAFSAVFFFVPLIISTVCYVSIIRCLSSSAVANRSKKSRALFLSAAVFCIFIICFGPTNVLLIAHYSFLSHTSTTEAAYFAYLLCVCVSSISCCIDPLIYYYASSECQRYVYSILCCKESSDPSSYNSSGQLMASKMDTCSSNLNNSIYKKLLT
binder,measurement,setting,value
B1,EC50 (µM) FLIPR Assay,[1],600 µM
B2,EC50 (µM) FLIPR Assay,[1],4.8 µM
B3,EC50 (µM) FLIPR Assay,[1],159 µM
B4,"EC50, calcium mobilization (FLIPR/FDSS) in HEK293 PAR4 cells, PAR1 counter screen",[2],0.6 µM
